Earlier results in patent US20080160019A1, “SEQUENTIAL COMBINATION THERAPY” (DYAX CORP., priority 2006, published 2008).

Target: Tie1 (Homo sapiens, UniProt P35590)
Sequence (P35590 22-1138): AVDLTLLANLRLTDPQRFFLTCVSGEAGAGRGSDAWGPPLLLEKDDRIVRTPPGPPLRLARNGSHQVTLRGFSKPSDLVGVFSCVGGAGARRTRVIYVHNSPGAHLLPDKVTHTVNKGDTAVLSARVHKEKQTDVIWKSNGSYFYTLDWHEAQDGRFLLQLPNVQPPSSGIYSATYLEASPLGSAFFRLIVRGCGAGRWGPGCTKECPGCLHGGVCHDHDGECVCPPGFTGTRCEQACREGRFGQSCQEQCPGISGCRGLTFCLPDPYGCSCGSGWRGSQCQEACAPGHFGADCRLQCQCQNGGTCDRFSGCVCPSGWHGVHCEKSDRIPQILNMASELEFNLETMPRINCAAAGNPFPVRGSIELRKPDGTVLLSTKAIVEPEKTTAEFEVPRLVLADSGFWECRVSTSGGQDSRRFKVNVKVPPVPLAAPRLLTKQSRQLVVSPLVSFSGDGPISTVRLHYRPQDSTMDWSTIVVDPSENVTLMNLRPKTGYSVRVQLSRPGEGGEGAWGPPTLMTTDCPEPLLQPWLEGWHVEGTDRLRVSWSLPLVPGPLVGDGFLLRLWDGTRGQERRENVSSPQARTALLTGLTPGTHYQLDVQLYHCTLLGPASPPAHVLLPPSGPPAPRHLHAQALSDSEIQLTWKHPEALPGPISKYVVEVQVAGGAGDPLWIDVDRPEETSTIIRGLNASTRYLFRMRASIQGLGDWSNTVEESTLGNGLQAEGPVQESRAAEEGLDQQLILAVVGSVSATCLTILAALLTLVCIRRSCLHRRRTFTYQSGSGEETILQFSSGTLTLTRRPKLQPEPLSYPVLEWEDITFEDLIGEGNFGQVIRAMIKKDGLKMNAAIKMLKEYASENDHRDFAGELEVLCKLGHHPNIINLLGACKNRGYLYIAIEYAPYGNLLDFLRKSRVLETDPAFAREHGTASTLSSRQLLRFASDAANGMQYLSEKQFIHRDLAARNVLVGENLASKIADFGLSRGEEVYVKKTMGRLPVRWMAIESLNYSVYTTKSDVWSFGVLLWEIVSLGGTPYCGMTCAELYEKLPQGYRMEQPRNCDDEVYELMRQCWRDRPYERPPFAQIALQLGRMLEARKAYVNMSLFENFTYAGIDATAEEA

Tie1 tyrosine phosphorylation: induce
Tie complex formation: induce
down modulation of Tie1 from the cell surface: induce
B1: M0044-B08: Tie1 ectodomain-binding antibody, variable domains SEQ ID NO:2 and 4 (antibody, listed as Homo sapiens, V domains shown)
VL: QDIQMTQSPSFLSASVGDRVTISCRASQYISIYLNWYQQRPGEAPKLLINAASSLQSGDPSRFSGSGSGTDFTLTINSLQPDDFATYYCQQYKSYPLTFGEGTKVEIK
VH: EVQLLESGGGLVQPGGSLRLSCAASGFTFSAYGMGWVRQAPGKGLEWVSVISPSGGQTSYADSVKGRFTISRDNSKNTLYLQMNSLRAEDTALYYCAGGDRYGPLHYWGQGTLVTVSS
